In patent publication US20200087400A1 (EUREKA THERAPEUTICS, published 2020):

B1: PSA146/HLA-A*02:01-specific scFv phage clone #26 (scFv, V domains shown)
VH: QVQLVQSGAEVKKPGASVKVSCKTSGYTFTNYGISWVRQAPGQGLEWMGWISAYNGNTNYAQNLQGRVTMTTDTSTSTAYMELRSLRSDDTAVYYCARSSYYGYLSDGWGQGTLVTVSS
VL: LPVLTQPPSASGTPGQRVTISCSGSSSNIGTNYVYWYQQLPGTAPKLLIYSNNQRPSGVPDRFSGSKSGTSASLAISGLRSEDEADYYCAAWDDSLSGLYVFGTGTKVTVLG
B2: PSA146/HLA-A*02:01-specific scFv phage clone #22 (scFv, V domains shown)
VH: EVQLVQSGAEVKKPGESLKISCKGSGYSFTSYWIGWVRQMPGKGLEWMGRIDPSDSYTNYSPSFQGHVTISADKSISTAYLQWSSLKASDTAMYYCARSFGAGYDSWGQGTLVTVSS
VL: QSALTQPASVSGSPGQSITISCTGTSSDVGGYNYVSWYQQHPGKAPKLMIYDVSKRPSGVSNRFSGSKSGNTASLTISGLQAEDEADYYCSSYTSSSRYVFGTGTKVTVLG
B3: PSA146/HLA-A*02:01-specific scFv phage clone #24 (scFv, V domains shown)
VH: QVQLVQSGAEVKKPGASVKVSCKASGYTFTSYYMHWVRQAPGKGLEWMGGFDPEDGETIYAQKFQGRVTMTEDTSTDTAYMELSSLRSEDTAVYYCARYPWDHWGQGTLVTVSS
VL: QAVVTQEPSLTVSPGGTVTLTCASSTGAVTSGYYPNWFQQKPGQAPRPLIYSTNNKHSWTPARFSGSLLGGKAALTLSGVQPEDEAEYYCLLYYGGQGVFGGGTKLTVLG
B4: PSA146/HLA-A*02:01-specific scFv phage clone #21 (scFv, V domains shown)
VH: QVQLVQSGAEVKKPGASVKVSCKASGYTFTSYYMHWVRQAPGKGLEWMGGFDPEDGETIYAQKFQGRVTMTEDTSTDTAYMELSSLRSEDTAVYYCARYNYDTWGQGTLVTVSS
VL: QAVVTQEPSLTVSPGGTVTLTCASSTGTVTSTYYPNWFQQKPGQAPRALIYSTSNRHSWTPARFSGSLLGGKAALTVSGVQPDDEAEYYCLVFYGGVWVFGGGTKLTVLG
B5: PSA146/HLA-A*02:01-specific scFv phage clone #20 (scFv, V domains shown)
VH: EVQLVQSGAEVKKPGESLKISCKGSGYSFTSYRIGWVRQMPGKGLEWMGIIYPGDSDTRYSPSFQGQVTISADKSISTAYLQWSSLKASDTAMYYCARWGLSWDGWGVTDYWGQGTLVTVSS
VL: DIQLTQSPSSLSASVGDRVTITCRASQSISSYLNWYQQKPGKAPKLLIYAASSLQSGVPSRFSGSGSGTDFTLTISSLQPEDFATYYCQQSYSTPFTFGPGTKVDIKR

Key:
[1] = molecular target: T1, PSA 146-154 peptide/HLA-A*02:01 complex on the cell surface (human); assay: flow cytometry, phage on T2 cells, anti-M13 + R-PE anti-mouse IgG
T1 construct: also called PSA146/HLA-A*02:01; PSA146-loaded T2 cells
From the text: (§1) Binding of the phage clones was detected by HRP-conjugated anti-M13 antibodies and developed using HRP substrate. The absorbance was read at 450 nm. […] Then, unique antibody clones were identified through DNA sequencing of ELISA-positive clones. […] T2 cells loaded with different peptides and β2M were first stained with purified scFv phage clones, followed by staining with a mouse anti-M13 mAb, and finally R-PE conjugated horse anti-mouse IgG from Vector Labs. Each step of the staining was performed for between 30-60 minutes on ice and the cells were washed twice between stainings. All 16 clones recognized PSA146-loaded T2 cells specifically. FIG. 3 provides examples of PSA146/HLA-A*02:01 specific phage clone binding to peptide-loaded T2 cells through FACS. […] The negative control scFv phage clone presents a human antibody previously found not to bind any cell-surface human antigens.
(§2) To identify additional PSA146/HLA-A*02:01 specific phage clones.

[2] = molecular target: T2, control peptide A2E-15/HLA-A*02:01 complex on T2 cells (member of the P19 mixture) (human); assay: flow cytometry, phage on T2 cells
T2 construct: Loaded on T2 cells as part of the mixture of 19 control peptides
From the text: as §1, §2

[3] = molecular target: T3, control peptide A2E-23/HLA-A*02:01 complex on T2 cells (member of the P19 mixture) (human); assay: flow cytometry, phage on T2 cells
T3 construct: Loaded on T2 cells as part of the mixture of 19 control peptides
From the text: as §1, §2

[4] = molecular target: T4, control peptide A2E-11/HLA-A*02:01 complex on T2 cells (member of the P19 mixture) (human); assay: flow cytometry, phage on T2 cells
T4 construct: Loaded on T2 cells as part of the mixture of 19 control peptides
From the text: as §1, §2

[5] = molecular target: T5, control peptide A2E-19/HLA-A*02:01 complex on T2 cells (member of the P19 mixture) (human); assay: flow cytometry, phage on T2 cells
T5 construct: Loaded on T2 cells as part of the mixture of 19 control peptides
From the text: as §1, §2

[6] = molecular target: T6, control peptide A2E-1/HLA-A*02:01 complex on T2 cells (member of the P19 mixture) (human); assay: flow cytometry, phage on T2 cells
T6 construct: Loaded on T2 cells as part of the mixture of 19 control peptides
From the text: as §1, §2

[7] = molecular target: T7, control peptide A2E-16/HLA-A*02:01 complex on T2 cells (member of the P19 mixture) (human); assay: flow cytometry, phage on T2 cells
T7 construct: Loaded on T2 cells as part of the mixture of 19 control peptides
From the text: as §1, §2

[8] = molecular target: T8, control peptide A2E-14/HLA-A*02:01 complex on T2 cells (member of the P19 mixture) (human); assay: flow cytometry, phage on T2 cells
T8 construct: Loaded on T2 cells as part of the mixture of 19 control peptides
From the text: as §1, §2

[9] = molecular target: T9, control peptide A2E-21/HLA-A*02:01 complex on T2 cells (member of the P19 mixture) (human); assay: flow cytometry, phage on T2 cells
T9 construct: Loaded on T2 cells as part of the mixture of 19 control peptides
From the text: as §1, §2

[10] = molecular target: T10, control peptide A2E-13/HLA-A*02:01 complex on T2 cells (member of the P19 mixture) (human); assay: flow cytometry, phage on T2 cells
T10 construct: Loaded on T2 cells as part of the mixture of 19 control peptides
From the text: as §1, §2

[11] = molecular target: T11, control peptide A2E-7/HLA-A*02:01 complex on T2 cells (member of the P19 mixture) (human); assay: flow cytometry, phage on T2 cells
T11 construct: Loaded on T2 cells as part of the mixture of 19 control peptides
From the text: as §1, §2

[12] = molecular target: T12, control peptide A2E-9/HLA-A*02:01 complex on T2 cells (member of the P19 mixture) (human); assay: flow cytometry, phage on T2 cells
T12 construct: Loaded on T2 cells as part of the mixture of 19 control peptides
From the text: as §1, §2

[13] = molecular target: T13, control peptide A2E-17/HLA-A*02:01 complex on T2 cells (member of the P19 mixture) (human); assay: flow cytometry, phage on T2 cells
T13 construct: Loaded on T2 cells as part of the mixture of 19 control peptides
From the text: as §1, §2

[14] = molecular target: T14, control peptide A2E-3/HLA-A*02:01 complex on T2 cells (member of the P19 mixture) (human); assay: flow cytometry, phage on T2 cells
T14 construct: Loaded on T2 cells as part of the mixture of 19 control peptides
From the text: as §1, §2

[15] = molecular target: T15, control peptide A2E-8/HLA-A*02:01 complex on T2 cells (member of the P19 mixture) (human); assay: flow cytometry, phage on T2 cells
T15 construct: Loaded on T2 cells as part of the mixture of 19 control peptides
From the text: as §1, §2

[16] = molecular target: T16, control peptide A2E-4/HLA-A*02:01 complex on T2 cells (member of the P19 mixture) (human); assay: flow cytometry, phage on T2 cells
T16 construct: Loaded on T2 cells as part of the mixture of 19 control peptides
From the text: as §1, §2

[17] = molecular target: T17, control peptide A2E-5/HLA-A*02:01 complex on T2 cells (member of the P19 mixture) (human); assay: flow cytometry, phage on T2 cells
T17 construct: Loaded on T2 cells as part of the mixture of 19 control peptides
From the text: as §1, §2

[18] = molecular target: T18, control peptide A2E-6/HLA-A*02:01 complex on T2 cells (member of the P19 mixture) (human); assay: flow cytometry, phage on T2 cells
T18 construct: Loaded on T2 cells as part of the mixture of 19 control peptides
From the text: as §1, §2

[19] = molecular target: T19, control peptide A2E-10/HLA-A*02:01 complex on T2 cells (member of the P19 mixture) (human); assay: flow cytometry, phage on T2 cells
T19 construct: Loaded on T2 cells as part of the mixture of 19 control peptides
From the text: as §1, §2

[20] = molecular target: T20, control peptide A2E-2/HLA-A*02:01 complex on T2 cells (member of the P19 mixture) (human); assay: flow cytometry, phage on T2 cells
T20 construct: Loaded on T2 cells as part of the mixture of 19 control peptides
From the text: as §1, §2

Binder | binding result [1] | binding result [2] | binding result [3] | binding result [4] | binding result [5] | binding result [6] | binding result [7] | binding result [8] | binding result [9] | binding result [10] | binding result [11] | binding result [12] | binding result [13] | binding result [14] | binding result [15] | binding result [16] | binding result [17] | binding result [18] | binding result [19] | binding result [20]
B1 | binds | no binding | no binding | no binding | no binding | no binding | no binding | no binding | no binding | no binding | no binding | no binding | no binding | no binding | no binding | no binding | no binding | no binding | no binding | no binding
B2 | binds |  |  |  |  | no binding |  |  |  |  |  |  |  |  |  |  |  |  |  | 
B3 | binds | no binding | no binding | no binding | no binding | no binding | no binding | no binding | no binding | no binding | no binding | no binding | no binding | no binding | no binding | no binding | no binding | no binding | no binding | no binding
B4 | binds | no binding | no binding | no binding | no binding | no binding | no binding | no binding | no binding | no binding | no binding | no binding | no binding | no binding | no binding | no binding | no binding | no binding | no binding | no binding
B5 | binds | no binding | no binding | no binding | no binding | no binding | no binding | no binding | no binding | no binding | no binding | no binding | no binding | no binding | no binding | no binding | no binding | no binding | no binding | no binding
